“Also recorded” adds a separate entry of the source.
Legend:
α3Na+/K+-ATPase [1] = molecular target: T1, α3Na+/K+-ATPase (Mus musculus, UniProt Q6PIC6); test: Whole cell current clamp of cultured cortical neurons, channel blockers present; format: cell-based; settings: fragment alone
cardiac myocytes = test: Spontaneous contraction frequency of cultured cardiac myocytes; format: cell-based, mouse; settings: Agrn+/− and Agrn−/− myocytes grown in fragment; listed as C-Ag208
Protocol: FIG. 17. Cardiac myocyte contraction is agrin dependent. Cardiac myocytes were prepared from hearts of individual embryos produced by heterozygous pairings. The genotype of cultures was determined by PCR analysis of tissue samples from each embryo. Myocytes were maintained in 199 medium containing 10% FCS as described (Mitcheson et al., 1998). At 5 days in culture, the frequency of spontaneous contractions was determined by counting contractions in myocytes from 5 random fields at 300× magnification for 30 seconds. Contraction frequency is dependent on Agrn gene dosage such that Agrn−/−>Agrn+/−>Agrn+/+. Addition of C-Ag208 to the growth medium rescues the Agrn mutant phenotype whereas C-Ag15 increased the contraction frequency of wild type myocytes to a level similar to Agrn−/− cells. Bars show mean±SEM for a minimum of 2 independent platings from 3 embryos, except for Agrn+/−treated with C-Ag208, which was a single plating of 2 embryos. All data were collected blind with respect to genotype and agrin treatment. *** p≦0.001. ANOVA with Bonferroni post-hoc pair-wise comparison.
Quantitative studies confirmed and extended these observations by showing that the frequency of myocyte contraction is dependent on agrin gene dose: Agrn−/− myocyte contraction frequency is about 2-fold higher and Agrn+/− 1.5-fold higher than Agrn+/+ myocytes (FIG. 17). To learn whether the effect of the Agrn mutation on myocyte contraction is a direct result of the loss of agrin expression the effects of growing the cells in media supplemented with C-Ag208, an active agrin fragment, or C-Ag15, the agrin antagonist was next examined.

α3Na+/K+-ATPase [2] = molecular target: T1, α3Na+/K+-ATPase; test: Na+ imaging (SBFI-AM) of cultured cortical cells; format: cell-based
[3] = molecular target: T2, α3 subunit of the Na+/K+-ATPase (Mus musculus, UniProt Q6PIC6); test: Chemical cross-linking of agrin fragments to cortical neurons, immunoprecipitation and immunoblot; format: binding; settings: immunoprecipitation with phosphotyrosine antibody mAb4G10
T2 construct: a 110 kDa band characteristic of the native α3Na+/K+-ATPase; endogenous in cells; host or cells: primary mouse cortical neurons, 10-16 days in culture
Protocol: Membrane impermeant chemical cross-linking agents BS^3 and DMA were used to stabilize the bond between agrin and its binding sites on cell surface membranes. Cultured neurons were washed briefly in PBS containing 10 mM EDTA followed by preincubation with one or more agrin fragment in PBS^2+ for 30 minutes at room temperature and then cooled on ice prior to addition of a 10× solution of cross-linking agent to a final concentration of 0.1 mM. The cross-linking reaction was allowed to proceed for 30 minutes after which any unreacted cross-linker was quenched and removed by washing with ice cold PBS^2+ containing 50 mM ethanolamine. For immunoblot analysis, cells were scraped into ice-cold TI buffer (20 mM Tris, pH 7.4; 10 mM EDTA; protease inhibitors (Sigma, P8340)) then Dounce homogenized and membrane fraction recovered by centrifugation. For the immunoprecipitation studies, cells were scraped and homogenized in TI buffer containing 150 mM NaCl and 0.5% Triton X-100. Cell extracts were cleared by centrifugation and aliquots of the detergent soluble fraction incubated with the appropriate antibody at 4° C. overnight. Antigen-antibody complexes were precipitated with either protein A or protein G and resuspended in SDS-PAGE sample buffer for immunoblot analysis.
Ligand induced phosphorylation is a common first step in membrane receptor activation and inhibition of tyrosine kinase activity blocks agrin signalling in central nervous system neurons. To determine if agrin induced phosphorylation of the putative agrin receptor, membranes from neurons cross-linked to C-Ag208 or C-Ag15, alone or in combination, were dissolved, in a detergent-containing buffer and aliquots immunoprecipitated with RAg1 or the phosphotyrosine antibody mAb4G10 (Upstate). Immunoprecipitated proteins were analyzed by immunoblotting with a monoclonal antibody (9E10.2, Invitrogen) against the COON-terminal myc tag on the agrin fragments.
To confirm the results of the mass spectrometry the ability of different α-subunit antibodies to recognize the putative agrin-Na^+/K^+-ATPase complex was tested. […]

agrin receptors = agrin receptors (Mus musculus, UniProt Q6PIC6); test: Agrin receptor immunohistochemistry, binding of short agrin fragments to live cortical neurons
Protocol: The distribution of agrin receptors was studied using agrin deletion fragments as affinity probes. Neurons, plated on glass coverslips, were washed briefly (1-2 min) in cold PBS containing 10 mM EDTA followed by a second wash in cold PBS alone before incubation for 15 min at 4° C. with 1 pM recombinant mouse agrin in NBM. In some experiments, labeling with mouse agrin was performed in the presence of various concentrations of rat rC-Ag95y4z8 or rC-Agy0z0. Control cultures were treated with vector control protein or an equivalent volume of vehicle in which the recombinant agrin was dissolved. Cells were then washed in cold NBM, fixed for 40 min on ice in 4% PFA in PBS, then washed in PBS and blocked for 1 h in PBSB. Recombinant agrin was detected through the COOH-terminal 6× polyhistidine tag using an anti-his antibody (1:500; Invitrogen). In experiments where cells were double labeled for synaptophysin, the anti-synaptophysin:antiserum (1:400) was also added at this step. Incubations were performed overnight at 4° C. in PBSB, followed by labeling with fluorescein conjugated goat anti-mouse and Texas red labeled anti-rabbit antibodies as described in the previous paragraphs. In some experiments, the amount of mouse agrin bound was estimated by digital photomicrography using the public domain NIH Image program (http://rsb.info.nih.gov/nih-image/).

[4] = system: cultured cortical neurons; test: Firing properties of cultured cortical neurons in normal external solution; format: cell-based, mouse; settings: normal external solution
[5] = system: layer V neurons in acute cortical slices; test: Whole cell current clamp of layer V neurons in acute cortical slices; format: cell-based, mouse

B1: C-Ag20z8: C-Ag20 isoform having the z8 splice variant, SEQ. ID NO. 2 (protein)
chain: MDPRTYIEYLNAVTESELTNEIPAEKALQSNHFELTLRTEATQGWLVLWIGKAAERADYMALAIVDGHLQLSYDLASQPVVLRSTVKVNTNRWLRVRAHREHREGSLQVGNEAPVTSSSPLGATQLDTDGALWLGGLQKLPVGQPLPKAYGTGFVGCLRNVVGHRQLHLLEDAVTKPELRPCPTLNSKLGPEQKLISEEDLNSAVDHHHHHH
modifications: Synthetically produced sequence
α3Na+/K+-ATPase [1]
  effect on neuron membrane potential: rapid and reversible depolarization
Cardiac myocytes
  contraction frequency: significant decrease; also recorded: rescues
α3Na+/K+-ATPase [2]; fragment or ouabain alone, neurons
  neuronal intracellular Na+: rapid increase
α3Na+/K+-ATPase [2]; non-neuronal cells
  intracellular Na+ in non-neuronal cells: unaffected
[3]
  tyrosine phosphorylation of the cross-linked complex: phosphorylated

B2: rC-Agy4z8: soluble 95-kD COOH-terminal fragment of rat agrin, active "neural" isoform (protein)
chain: AATGTTAAMATARATTVSRLPASSVTPRVYPSHTSRPVGRTTAPPTTRRPPTTATNMDRPRTPGHQQPSKSCDSQPCLHGGTCQDQDSGKGFTCSCTAGRGGSVCEKVQPPSMPAFKGHSFLAFPTLRAYHTLRLALEFRALETEGLLLYNGNARGKDFLALALLDGRVQFRFDTGSGPAVLTSLVPVEPGRWHRLELSRHWRQGTLSVDGETPVVGESPSGTDGLNLDTNLYVGGIPEEQVAMVLDRTSVGVGLKGCIRMLDINNQQLELSDWQRAAVQSSGVGECGDHPCLPNPCHGGALCQALEAGMFLCQCPPGRFGPTCADEKSPCQPNPCHGAAPCRVLSSGGAKCECPLGRSGTFCQTVLETAGSRPFLADFNGFSYLELKGLHTFERDLGEKMALEMVFLARGPSGLLLYNGQKTDGKGDFVSLALHNRHLEFCYDLGKGAAVIRSKEPIALGTWVRVFLERNGRKGALQVGDGPRVLGESPKSRKVPHTMLNLKEPLYIGGAPDFSKLARGAAVSSGFSGVIQLVSLRGHQLLTQEHVLRAVDVSPFADHPCTQALGNPCLNGGSCVPREATYECLCPGGFSGLHCEKGLVEKSVGDLETLAFDGRTYIEYLNAVIESPETLDSRALFSEKALQSNHFELSLRTEATQGLVLWIGKAAERADYMALAIVDGHLQLSYDLGSQPVVLRSTVKVNTNRWLRIRAHREHREGSLQVGNEAPVTGSSPLGATQLDTDGALWLGGLQKLPVGQALPKAYGTGFVGCLRDVVVGHRQLHLLEDAVTKPELRPCPTP
Agrin receptors; 1:100 molar ratio of C-Ag20z8 to rC-Agy4z8
  C-Ag20z8 labeling: barely detectable
Agrin receptors; large (500-fold molar) excess of rat agrin
  binding of C-Ag20z8, C-Ag20z0 and C-Ag15: completely blocked

B3: C-Ag20z0: C-Ag20 isoform having the z0 splice variant, SEQ. ID NO. 1 (protein)
chain: MDPRTYIEYLNAVTESEKALQSNHFELTLRTEATQGWLVLWIGKAAERADYMALAIVDGHLQLSYDLASQPVVLRSTVKVNTNRWLRVRAHREHREGSLQVGNEAPVTSSSPLGATQLDTDGALWLGGLQKLPVGQPLPKAYGTGFVGCLRNVVGHRQLHLLEDAVTKPELRPCPTLNSKLGPEQKLISEEDLNSAVDHHHHHH
modifications: Synthetically produced sequence
α3Na+/K+-ATPase [1]
  effect on neuron membrane potential: rapid and reversible depolarization
[4]
  membrane potential: rapidly depolarized
[5]; bath application of fragment alone
  action potentials: appearance of high frequency action potentials
[5]; bath application, slices from 6-11 day-old mice
  membrane depolarization: 9.6±2.22 mV

— patent US20100095387A1, “METHODS AND REAGENTS FOR SCREENING NEW DRUGS AND FOR TREATING ION PUMP ASSOCIATED DISORDERS AND DISEASES” (priority 2005, published 2010)
